In patent EP4039268A1 (IMBA-Institut für Molekulare Biotechnologie GmbH, dated 2022):

Key:
Experiment in all cases: ELISA screen
[1] = target: T1, full-length trimeric SARS-CoV-2 Spike protein (Spike-H6) (SARS-CoV-2, N-glycosylated (22 N-glycosylation sites))
T1 construct: also called trimeric Spike; full-length Spike-H6

[2] = target: T2, monomeric SARS-CoV-2 receptor binding domain (RBD-H6) (SARS-CoV-2, UniProt P0DTC2 319-541)
T2 construct: Made in HEK293-6E cells; also called RBD Spike; monomeric RBD

[3] = target: T3, human recombinant soluble ACE2 (human, UniProt Q9BYF1 18-740)
T3 construct: also called hrsACE2
T3 sequence (Q9BYF1 18-740 limits assumed): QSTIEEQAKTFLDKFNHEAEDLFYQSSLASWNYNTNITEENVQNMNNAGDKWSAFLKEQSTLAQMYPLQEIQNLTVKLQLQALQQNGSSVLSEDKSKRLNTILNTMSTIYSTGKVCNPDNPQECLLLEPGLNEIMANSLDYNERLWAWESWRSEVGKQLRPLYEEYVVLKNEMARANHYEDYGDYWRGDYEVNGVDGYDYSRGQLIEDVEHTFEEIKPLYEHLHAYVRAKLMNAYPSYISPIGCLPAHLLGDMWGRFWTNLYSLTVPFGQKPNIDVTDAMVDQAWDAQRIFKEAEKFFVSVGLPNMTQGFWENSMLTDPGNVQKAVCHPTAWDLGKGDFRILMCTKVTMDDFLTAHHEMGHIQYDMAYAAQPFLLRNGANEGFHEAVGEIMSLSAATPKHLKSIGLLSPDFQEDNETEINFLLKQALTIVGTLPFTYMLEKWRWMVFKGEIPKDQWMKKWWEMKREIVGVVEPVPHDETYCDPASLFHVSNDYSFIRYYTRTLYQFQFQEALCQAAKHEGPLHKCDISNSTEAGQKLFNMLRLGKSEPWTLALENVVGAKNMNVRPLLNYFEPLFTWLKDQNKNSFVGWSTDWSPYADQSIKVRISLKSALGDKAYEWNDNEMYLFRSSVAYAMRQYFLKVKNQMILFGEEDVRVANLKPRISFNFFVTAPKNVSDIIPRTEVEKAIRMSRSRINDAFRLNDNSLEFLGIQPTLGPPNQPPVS

| Binder | Mean normalized OD [1] | Mean normalized OD [2] | Mean normalized OD [3] |
| --- | --- | --- | --- |
| Siglec1 CRD-mouse IgG2a-Fc fusion protein (Fc fusion) TWGVSSPKNVQGLSGSCLLIPCIFSYPADVPVSNGITAIWYYDYSGKRQVVIHSGDPKLVDKRFRGRAELMGNMDHKVCNLLLKDLKPEDSGTYNFRFEISDSNRWLDVKGTTVTVTGGGSGGGSGGGS | 0 OD | 0 OD | -0.002 OD |
| Pla2r1_1 CRD-mouse IgG2a-Fc fusion protein (Fc fusion) SSRICYQFNLLSSLSWNQAHSSCLMQGGALLSIADEDEEDFIRKHLSKVVKEVWIGLNQLDEKAGWQWSDGTPLSYLNWSQEITPGPFVEHHCGTLEVVSAAWRSRDCESTLPYICKGGGSGGGSGGGS | 0 OD | 0 OD | -0.066 OD |
| Pkd1l2 CRD-mouse IgG2a-Fc fusion protein (Fc fusion) not shown | 0.001 OD | 0.001 OD | -0.002 OD |
| Clec18a CRD-mouse IgG2a-Fc fusion protein (Fc fusion) IDGDCFMVSPEADTYYGAKMKCQGKGGVLAQIESQKVQDILAFYLGRLETTNEVTDSDFETKNFWIGLTYKAAKDSFRWTTGEHQSFTSFAFGQPDNQGFGNCVEMQASAAFNWNDQRCKTRNRYICQGGGSGGGSGGGS | 0.022 OD | 0 OD | -0.013 OD |
| Cd69 CRD-mouse IgG2a-Fc fusion protein (Fc fusion) YKRTCYFFSTTTKSWALAQRSCSEDAATLAVIDSEKDMTFLKRYSGELEHWIGLKNEANQTWKWANGKEFNSWFNLTGSGRCVSVNHKNVTAVDCEANFHWVCSGGGSGGGSGGGS | 0.001 OD | 0.001 OD | -0.022 OD |
| Pla2r1_2 CRD-mouse IgG2a-Fc fusion protein (Fc fusion) FNRKCYKLKKDRKSWLGALHSCQSNDSVLMDVASLAEVEFLVSLLRDENASETWIGLSSNKIPVSFEWSSGSSVIFTNWYPLEPRILPNRRQLCVSAEESDGRWKVKDCKERLFYICKGGGSGGGSGGGS | 0.001 OD | 0.011 OD | -0.019 OD |
| Siglec12 CRD-mouse IgG2a-Fc fusion protein (Fc fusion) PQEVFTLNVERKVVVQEGLCVLVPCNFSYLKKRLTDWTDSDPVHGFWYREGTDRRKDSIVATNNPIRKAVKETRNRFFLLGDPWRNDCSLNIREIRKKDAGLYFFRLERGKTKYNYMWDKMGGGSGGGSGGGS | 0.046 OD | -0.021 OD | -0.105 OD |
| Cd209e CRD-mouse IgG2a-Fc fusion protein (Fc fusion) FFNGNCYFFSKSQRDWHDSMTACKEMGAQLVIIKSHEEQSFLQQTSKKNSYTWMGLSDLNKEGEWYWLDGSPLSDSFEKYWKKGQPNNVGGQDCVEFRDNGWNDAKCEQRKFWICKGGGSGGGSGGGS | 0.045 OD | 0.048 OD | -0.016 OD |
| Chodl CRD-mouse IgG2a-Fc fusion protein (Fc fusion) VKHPCYKMAYFHELSSRVSFQEARLACESEGGVLLSLENEAEQKLIESMLQNLTKPGTGISDGDFWIGLLRSGDGQTSGACPDLYQWSDGSSSQFRNWYTDEPSCGSEKCVVMYHQPTANPGLGGPYLYQWNDDRCNMKHNYICKGGGSGGGSGGGS | 0.002 OD | 0.001 OD | -0.001 OD |
| Reg1 CRD-mouse IgG2a-Fc fusion protein (Fc fusion) ISCPEGSNAYSSYCYYFTEDRLTWADADLFCQNMNSGYLVSVLSQAEGNFVASLIKESGTTDANVWTGLHDPKRNRRWHWSSGSLFLYKSWATGSPNSSNRGYCVSLTSNTGYKKWKDDNCDAQYSFVCKFGGGSGGGSGGGS | 1.55 OD | 0.009 OD | -0.073 OD |
| Reg3g CRD-mouse IgG2a-Fc fusion protein (Fc fusion) YGSYCYALFSVSKNWYDADMACQKRPSGHLVSVLSGAEASFLSSMIKSSGNSGQYVWIGLHDPTLGYEPNRGGWEWSNADVMNYINWETNPSSSSGNHCGTLSRASGFLKWRENYCNLELPYVCKGGGSGGGSGGGS | -0.009 OD | 0.017 OD | -0.014 OD |
| Clec1a CRD-mouse IgG2a-Fc fusion protein (Fc fusion) YGDKCYQFYKESKNWQSCEYFCLADNATMLKISTQEELDFAMPQSYSEFFYSYWTGLSRNGSGKAWLWTDGTPYSFELFEIIIDPTNLRNRDCMTIFNGKAYSKDCKELRRCACEGGGSGGGSGGGS | -0.005 OD | 0.01 OD | -0.006 OD |
| Sftpa1 CRD-mouse IgG2a-Fc fusion protein (Fc fusion) not shown | 0.005 OD | 0.002 OD | -0.092 OD |
| Cd302 CRD-mouse IgG2a-Fc fusion protein (Fc fusion) FQGSCYAFLQVTINVENIEDVRKQCTDHGADMVSIHNEEENAFILDTLQKRWKGPDDLLLGMFYDTDDATFKWYDHSNMTFDKWADQDGEDLVDTCGFLYTKTGEWRKGDCEISSVEGTLGGGSGGGSGGGS | -0.002 OD | 0.001 OD | -0.002 OD |
| Reg2 CRD-mouse IgG2a-Fc fusion protein (Fc fusion) INCPEGANAYGSYCYYLIEDRLTWGEADLFCQNMNAGHLVSILSQAESNFVASLVKESGTTASNVWTGLHDPKSNRRWHWSSGSLFLFKSWATGAPSTANRGYCVSLTSNTAYKKWKDENCEAQYSFVCKFGGGSGGGSGGGS | 0.056 OD | 0.026 OD | -0.042 OD |
| Sell CRD-mouse IgG2a-Fc fusion protein (Fc fusion) WTYHYSEKPMNWENARKFCKQNYTDLVAIQNKREIEYLENTLPKSPYYYWIGIRKIGKMWTWVGTNKTLTKEAENWGAGEPNNKKSKEDCVEIYIKRERDSGKWNDDACHKRKAALCGGGSGGGSGGGS | -0.016 OD | -0.041 OD | -0.23 OD |
| Pkd1 CRD-mouse IgG2a-Fc fusion protein (Fc fusion) GNGHCYRLVAEKAPWLQAQEQCRTWAGAALAMVDSPAIQHFLVSKVTRSLDVWIGFSSVEGTEGLDPRGEAFSLESCQNWLPGEPHPATAEHCVRLGPAGQCNTDLCSAPHSYVCEGGGSGGGSGGGS | 0 OD | 0 OD | -0.01 OD |
| Reg3a CRD-mouse IgG2a-Fc fusion protein (Fc fusion) YRSHCYALVMTPKSWFQADLVCQKRPSGHLVSILSGGEASFVSSLVNGRVDNYQDIWIGLHDPTMGQQPNGGGWEWSNSDVLNYLNWDGDPSSTVNRGHCGSLTASSGFLKWGDYYCDGTLPFVCKGGGSGGGSGGGS | 0.006 OD | 0.039 OD | -0.132 OD |
| Pla2r1_8 CRD-mouse IgG2a-Fc fusion protein (Fc fusion) FKGNCYSFSTVLDSRSFEDAHEFCKSEGSNLLAIRDAAENSFLLEELLAFGSSVQMVWLNAQFDNNNKTLRWFDGTPTEQSNWGLRKPDMDHLKPHPCVVLRIPEGIWHFTPCEDKKGFICKGGGSGGGSGGGS | -0.002 OD | 0.019 OD | -0.005 OD |
| Reg3b CRD-mouse IgG2a-Fc fusion protein (Fc fusion) YGSYCYALFQIPQTWFDAELACQKRPGGHLVSVLNSAEASFLSSMVKRTGNSYQYTWIGLHDPTLGAEPNGGGWEWSNNDVMNYFNWERNPSTALDRAFCGSLSRASGFLKWRDMTCEVKLPYVCKGGGSGGGSGGGS | 0.005 OD | 0.004 OD | -0.009 OD |
